We go through one molecule from patent US20130274191A1 (THOMAS JEFFERSON UNIVERSITY, published 2013).

Non-standard residues stand in square brackets, D forms with d. No end group written: not given here. Sar = CNCC(=O)O

This assay has as its target T1, human Angiotensin II type 1 receptor (AT1R) (human, UniProt P30556 1-359, limits assumed).
T1 sequence (looked up): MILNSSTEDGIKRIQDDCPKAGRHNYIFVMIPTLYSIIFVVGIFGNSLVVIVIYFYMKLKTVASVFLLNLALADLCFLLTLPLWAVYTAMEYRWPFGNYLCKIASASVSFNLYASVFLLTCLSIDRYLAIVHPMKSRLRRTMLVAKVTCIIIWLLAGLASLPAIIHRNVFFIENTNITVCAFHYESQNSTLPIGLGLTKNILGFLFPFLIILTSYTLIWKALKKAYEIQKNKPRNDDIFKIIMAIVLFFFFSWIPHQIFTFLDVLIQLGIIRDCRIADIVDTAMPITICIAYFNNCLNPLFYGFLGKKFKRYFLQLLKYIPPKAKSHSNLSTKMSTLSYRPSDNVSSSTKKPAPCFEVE
The experiment in a line: cell-based or functional assay.

Turning to [Sar]RVY[Cys(Et)]HPL [CORET: Sar^1,Cys(Et)^5,Leu^8-AngII], the “βarr activation by the AT1R, potency relative to AngII” value was 10 times less potent than AngII.
